“And” between values parts separate entries of the source, which are not always exact repeats. Equal values may be shown once.
Experiments:
Assay in all cases: EMSA
[1] = system: phospho-S129 alpha-synuclein (pSyn) (human); conditions: EMSA: 11 mM Tris, 1 mM EDTA, 50 mM NaCl, pH 8.0-8.5, 20 min on ice then 30 min RT, mutants/deltaNAC: 4 ul protein in 20 mM Tris-HCl, 200 mM NaCl in 10 ul, 0.5% …
[2] = system: alpha-synuclein (aSyn) (human); conditions: EMSA: 11 mM Tris, 1 mM EDTA, 50 mM NaCl, pH 8.0-8.5, 20 min on ice then 30 min RT, mutants/deltaNAC: 4 ul protein in 20 mM Tris-HCl, 200 mM NaCl in 10 ul, 0.5% …
[3] = system: beta-synuclein (bSyn) (human); conditions: up to 57 uM protein, 4 nM DNA; EMSA: 11 mM Tris, 1 mM EDTA, 50 mM NaCl, pH 8.0-8.5, 20 min on ice then 30 min RT; mutants/deltaNAC: 4 ul protein in 20 mM Tris-HCl, 200 mM NaCl in 10 ul, 0.5% …
aSyn A30P (human) = conditions: 1.4 uM protein, 1.3 nM DNA; EMSA: 11 mM Tris, 1 mM EDTA, 50 mM NaCl, pH 8.0-8.5, 20 min on ice then 30 min RT; mutants/deltaNAC: 4 ul protein in 20 mM Tris-HCl, 200 mM NaCl in 10 ul, 0.5% …
aSyn E46K (human) = conditions: 1.4 uM protein, 1.3 nM DNA; EMSA: 11 mM Tris, 1 mM EDTA, 50 mM NaCl, pH 8.0-8.5, 20 min on ice then 30 min RT; mutants/deltaNAC: 4 ul protein in 20 mM Tris-HCl, 200 mM NaCl in 10 ul, 0.5% …
aSyn A53T (human) = conditions: 1.4 uM protein, 1.3 nM DNA; EMSA: 11 mM Tris, 1 mM EDTA, 50 mM NaCl, pH 8.0-8.5, 20 min on ice then 30 min RT; mutants/deltaNAC: 4 ul protein in 20 mM Tris-HCl, 200 mM NaCl in 10 ul, 0.5% …
[4] = system: gamma-synuclein (gSyn) (human); conditions: up to 57 uM protein, 4 nM DNA; EMSA: 11 mM Tris, 1 mM EDTA, 50 mM NaCl, pH 8.0-8.5, 20 min on ice then 30 min RT; mutants/deltaNAC: 4 ul protein in 20 mM Tris-HCl, 200 mM NaCl in 10 ul, 0.5% …
deltaNAC aSyn (human) = conditions: 1.4 uM protein, 1.3 nM DNA; EMSA: 11 mM Tris, 1 mM EDTA, 50 mM NaCl, pH 8.0-8.5, 20 min on ice then 30 min RT; mutants/deltaNAC: 4 ul protein in 20 mM Tris-HCl, 200 mM NaCl in 10 ul, 0.5% …

Question: For 400 bp DNA, which binding signal (fraction shifted) [1] is on record?
Answer: 0.927

Question: What about the binding signal (fraction shifted) [2] of the same substance?
Answer: 0.947

Question: Which results are given for 300 bp DNA (length series)?
Answer: binding signal (fraction shifted) [1]: 0.617; binding signal (fraction shifted) [2]: 0.803

Question: For 200 bp DNA, which binding signal (fraction shifted) [1] is on record?
Answer: 0.12

Question: What about the binding signal (fraction shifted) [2] of the same substance?
Answer: 0.74

Question: Which results are given for “300 bp linear DNA (ends not specified for the experiment)”?
Answer: binding signal (fraction shifted) [3]: 0; binding signal (fraction shifted) (aSyn A30P (human)): 0.27; binding signal (fraction shifted) (aSyn E46K (human)): 0.975; K half ([1]; 0.1 nM DNA): 27.3 µM; K half ([1]; 6 nM DNA): 32.5 µM; K half ([2]; 0.1 nM DNA): 273 nM; K half ([2]; 6 nM DNA): 5850 nM; binding signal (fraction shifted) ([2]; 1.4 uM protein, 1.3 nM DNA, deltaNAC series): 0.597; binding signal (fraction shifted) ([2]; 1.4 uM protein, 1.3 nM DNA, point mutant series): 0.55; binding signal (fraction shifted) ([2]; 57 uM protein, 4 nM DNA, paralog series): 0.199; binding signal (fraction shifted) [2]: 1 and 0.997; binding signal (fraction shifted) (aSyn A53T (human)): 0.379; binding signal (fraction shifted) [4]: 0; binding signal (fraction shifted) (deltaNAC aSyn (human)): 1

Question: Which results are given for 500 bp DNA?
Answer: binding signal (fraction shifted) [1]: 1; binding signal (fraction shifted) [2]: 1

Question: Which binding signal (fraction shifted) [1] does the source give for 125 bp DNA here?
Answer: 0.007

Question: What about the binding signal (fraction shifted) [2] of the same substance?
Answer: 0.327

Question: With “304 bp circular DNA topoisomer (made with HMGB1)” as the substance, how does the K half ([2]; covalently closed circle, topoisomer) read?
Answer: 1640 nM

Question: For “300 bp linear DNA with 4-base 5' overhangs”, which binding signal (fraction shifted) [1] is on record?
Answer: 0.573

Question: And the binding signal (fraction shifted) [2]?
Answer: 0.917

Question: 300 bp DNA, 67% GC was tested. Which binding signal (fraction shifted) ([2]; 57 uM aSyn) did it give?
Answer: 0.693

Question: Which binding signal (fraction shifted) ([2]; 57 uM aSyn) does the source give for 300 bp DNA, 56% GC here?
Answer: 0.81

Question: Which results are given for 300 bp linear DNA, blunt?
Answer: binding signal (fraction shifted) [1]: 0.607; binding signal (fraction shifted) [2]: 0.857

Question: Which K half ([2]; covalently closed circle) does the source give for 304 bp circular DNA (made with HMGB1) here?
Answer: 1610 nM
